Measured values taken from patent US20240115719A1, “COMPOUND OR SALT THEREOF, AND ANTIBODY OBTAINED BY USING THE SAME” (priority 2021, published 2024).

Assay: Stability test of ADC mimic in rat plasma (eliminated fluorescent molecules by HPLC/fluorescence detection)
Assay type: in vitro ADME
Conditions: ADC mimic 0.1 mg/mL, 37° C. for 4 days vs -80° C. (Day 0 = 100%)
Procedure: Blood stability of various ADC mimics was assessed by analyzing the amounts of fluorescent molecules that were reduced from ADC mimic when ADC mimic was incubated in rat blood as described below.
Sterile filtration was performed on 700 μL of rat plasma (Charles River) after ADC mimic was added to it so as to be 0.1 mg/mL. The solution was dispensed into six Eppen tubes in 50 μL portions. Three of the six samples were stored in an incubator set at 37° C. for 4 days. The remaining three were also stored in a −80° C. freezer for 4 days. 100 μL of acetonitrile was added to each sample, and the mixture was vortexed and centrifuged to obtain a precipitate. The resulting supernatant was collected and analyzed by HPLC.
The determination was made using a liquid chromatography/fluorescence detection method to determine the amount of fluorescence molecules that had eliminated from ADC mimic.
A lower rate of increase indicates higher stability in plasma.
Increase in fluorescence intensity of fluorescent molecules eliminated from Example ADC mimic=[(Day=4 fluorescence intensity)−(Day=0 fluorescence intensity)].
Increase in fluorescence intensity of fluorescent molecules eliminated from Control ADC mimic=[(Day=4 fluorescence intensity)−(Day=0 fluorescence intensity)].
Carboxyrhodamine 110-PEG4-DBCO was separately used to calculate the colleration between area-area of fluorescent intensity and concentration for HPLC. An increase in the fluorescent intensity of the respective ADC mimic was converted into a concentration by using the calculation equation. When the concentration of Day 0 was taken as 100%, the percentage of the concentration of the above increase was calculated as the elimination rate.

Q: For `CCNC(=O)CC[C@H](NC(=O)CCCCN=[N+]=[N-])C(=O)NOC` [compound 102], which “Elimination rate of fluorescence molecule at Day = 4” value (shortened to “Elimination rate”) is on record?
A: <3%

Q: With `CCCNC(=O)C[C@H](NC(=O)COCCOCCOCCN=[N+]=[N-])C(=O)NO` [compound 107] as the compound, how does the “Elimination rate” value read?
A: 20%

Q: Which “Elimination rate” value does the source give for `CCCNC(=O)CC[C@H](NC(=O)CCCCN=[N+]=[N-])C(=O)NOC` [compound 101] here?
A: <3%

Q: For `CCCNC(=O)C[C@H](NC(=O)CCCCN=[N+]=[N-])C(=O)NO` [compound 111], which “Elimination rate” value is on record?
A: 21%

Q: With `CCCNC(=O)c1cc(N=[N+]=[N-])cc(C(=O)NO)c1` [compound 93] as the compound, how does the “Elimination rate” value read?
A: <3%

Q: With `CCCNC(=O)CC[C@H](NC(=O)CCCCN=[N+]=[N-])C(=O)NO` [compound 96] as the compound, how does the “Elimination rate” value read?
A: <3%
